Assay results taken from WO2021218879A1 (dated 2021).
Where two headings read alike, the source gives them in different places.

Columns and labels:
[1] = target: T1, SARS-CoV-2-S1-his protein (SARS-CoV-2, UniProt P0DTC2 16-685)
SARS-CoV-2 RBD protein [2] = target: T2, SARS-CoV-2 RBD protein (SARS-CoV-2, UniProt P0DTC2 319-541)
[3] = target: T3, SARS-CoV-2 S full-length protein on pseudovirus (SARS-CoV-2, UniProt P0DTC2 14-1273); assay: cell-based or functional assay
[4] = target: T4, SARS-CoV-2 S1 protein on HF-nCoV-SPIKE-8D3 cells (SARS-CoV-2, UniProt P0DTC2 14-1273); assay: flow cytometry on HF-nCoV-SPIKE-8D3 cells, titrated antibody
T4 construct: whole, on cells

[5] = target: T1, SARS-CoV-2-S1-his protein; assay: ELISA, S1 protein coated at varied concentration, antibody at 1 ug/mL
SARS-CoV-2 ECD protein [6] = target: T5, SARS-CoV-2 ECD protein (SARS-CoV-2, UniProt P0DTC2 14-1213); assay: ELISA, ECD protein coated at varied concentration, antibody at 1 ug/mL
T5 construct: extracellular domain

[7] = target: T1, SARS-CoV-2-S1-his protein; remark: listed apart in the source
[8] = target: T3, SARS-CoV-2 S full-length protein on …; assay: cell-based or functional assay; remark: listed apart in the source
[9] = target: CD16a-AVI-His(V158)+BirA protein (UniProt P08637 17-208); assay: ELISA, biotinylated CD16a captured on avidin, titrated antibody
[10] = target: T6, CD32a-AVI-His(R131)+BirA protein (UniProt P12318 36-218); assay: ELISA, biotinylated CD32a captured on avidin, titrated antibody
T6 sequence: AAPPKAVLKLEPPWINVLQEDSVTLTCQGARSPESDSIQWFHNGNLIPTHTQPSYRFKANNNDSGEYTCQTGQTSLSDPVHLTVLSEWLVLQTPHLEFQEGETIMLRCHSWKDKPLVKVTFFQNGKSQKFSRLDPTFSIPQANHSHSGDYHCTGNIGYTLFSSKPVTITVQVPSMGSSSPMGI

[11] = target: T7, CD32b-AVI-HIS+BirA protein (UniProt P31994 43-217); assay: ELISA, biotinylated CD32b captured on avidin, titrated antibody
T7 sequence: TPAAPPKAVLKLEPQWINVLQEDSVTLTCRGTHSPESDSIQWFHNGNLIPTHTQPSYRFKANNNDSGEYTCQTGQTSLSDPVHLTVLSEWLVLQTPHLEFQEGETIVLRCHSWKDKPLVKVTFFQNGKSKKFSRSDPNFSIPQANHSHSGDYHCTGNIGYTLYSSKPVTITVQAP

[12] = target: T1, SARS-CoV-2-S1-his protein; assay: ELISA, S1 protein coated at varied concentration, antibody at 1 ug/mL; remark: listed apart in the source
[13] = target: T1, SARS-CoV-2-S1-his protein; assay: BLI (OctetRED96e), biotinylated S1 on SA sensor, antibody in solution
SARS-CoV-2 ECD protein [14] = target: T5, SARS-CoV-2 ECD protein; assay: ELISA, ECD protein coated at varied concentration, antibody at 1 ug/mL; remark: listed apart in the source
SARS-CoV-2 RBD protein [15] = target: T2, SARS-CoV-2 RBD protein; assay: ELISA, RBD protein coated at varied concentration, antibody at 1 ug/mL
SARS-CoV-2 RBD protein [16] = target: T2, SARS-CoV-2 RBD protein; assay: BLI (OctetRED96e), biotinylated RBD on SA sensor, antibody in solution
[17] = target: CD64-AVI-His+BirA protein (UniProt P12314 16-288); assay: ELISA, biotinylated CD64 captured on avidin, titrated antibody
Chain of CD64-AVI-His+BirA protein (P12314 16-288 limits assumed): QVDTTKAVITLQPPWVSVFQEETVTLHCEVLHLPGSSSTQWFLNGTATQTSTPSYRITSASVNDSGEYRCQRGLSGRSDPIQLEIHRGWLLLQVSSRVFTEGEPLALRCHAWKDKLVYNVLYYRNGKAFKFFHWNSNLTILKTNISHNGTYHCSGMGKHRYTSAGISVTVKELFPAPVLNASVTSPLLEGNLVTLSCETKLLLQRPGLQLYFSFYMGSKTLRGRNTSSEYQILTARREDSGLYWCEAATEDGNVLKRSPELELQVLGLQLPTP

Chain of CD16a-AVI-His(V158)+BirA protein (P08637 17-208 F176V limits assumed): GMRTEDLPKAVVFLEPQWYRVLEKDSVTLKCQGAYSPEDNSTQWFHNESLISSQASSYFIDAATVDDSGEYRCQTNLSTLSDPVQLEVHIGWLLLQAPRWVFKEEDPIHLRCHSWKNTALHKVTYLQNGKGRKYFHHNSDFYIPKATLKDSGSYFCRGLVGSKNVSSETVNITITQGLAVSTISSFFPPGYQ

B1: human-mouse chimeric antibody CoV2-mhB27 (antibody, V domains shown)
VH: EVKLVESGGGLVKPGGSLKLSCAASGFTFSNYGMSWVRQSPEKRLEWVAEISSGGSYTYYPDTVTGRFTISRDNAKNTLYLEMSSLRSEDTAMYYCARFRYDGGGGTVDYWGQGTSVTVSS
VL: not shown
notes: also called murine antibody CoV2-mhB27
EC50 [1]: 0.024 µg/mL
EC50 (SARS-CoV-2 RBD protein [2]): 0.044 µg/mL
neutralization IC50, SARS-CoV-2 pseudovirus on 293FT-ACE2 cells (luciferase) [3]: 8.7 ng/mL
EC50 [4]: 2.77 µg/mL
EC50 [5]: 0.116 µg/mL
EC50 (SARS-CoV-2 ECD protein [6]): 0.307 µg/mL

B2: humanized antibody CoV2-HB27 (antibody)
heavy: not shown
light: EIVLTQSPATLSLSPGERATLSCRASESVDNYGISFMNWFQQKPGQAPRLLIYAASNQGSGVPARFSGSGSGTDFSLTISSLEPEDFAVYFCQQSKEVPRTFGQGTKVEIKRTVAAPSVFIFPPSDEQLKSGTASVVCLLNNFYPREAKVQWKVDNALQSGNSQESVTEQDSKDSTYSLSSTLTLSKADYEKHKVYACEVTHQGLSSPVTKSFNRGEC
notes: also called IgG1 subtype CoV2-HB27 antibody; CoV2-HB27-IgG1
EC50 [7]: 0.179 µg/mL
neutralization IC50, SARS-CoV-2 pseudovirus on 293FT-ACE2 cells (luciferase) [8]: 5.9 ng/mL
binding result [9]: binds
binding result [10]: binds
binding result [11]: binds
EC50 [12]: 0.183 µg/mL
Kd [13]: 0.37 nM
koff [13]: 0.00039 s⁻¹
kon [13]: 1.1e+06 M⁻¹ s⁻¹
EC50 (SARS-CoV-2 ECD protein [14]): 0.972 µg/mL
EC50 (SARS-CoV-2 RBD protein [15]): 0.0222 µg/mL
Kd (SARS-CoV-2 RBD protein [16]): 0.039 nM
koff (SARS-CoV-2 RBD protein [16]): 1.4e-05 s⁻¹
kon (SARS-CoV-2 RBD protein [16]): 370000 M⁻¹ s⁻¹

B3: CoV2-HB27-Ae0-IgG1 (antibody)
heavy: not shown
light: EIVLTQSPATLSLSPGERATLSCRASESVDNYGISFMNWFQQKPGQAPRLLIYAASNQGSGVPARFSGSGSGTDFSLTISSLEPEDFAVYFCQQSKEVPRTFGQGTKVEIKRTVAAPSVFIFPPSDEQLKSGTASVVCLLNNFYPREAKVQWKVDNALQSGNSQESVTEQDSKDSTYSLSSTLTLSKADYEKHKVYACEVTHQGLSSPVTKSFNRGEC
notes: also called Ae0-IgG1 form antibody; defucosylated IgG1 subtype CoV2-HB27
binding result [9]: binds
binding result [10]: binds
binding result [11]: binds

B4: CoV2-HB27-Fd6-IgG1 (antibody)
heavy: not shown
light: EIVLTQSPATLSLSPGERATLSCRASESVDNYGISFMNWFQQKPGQAPRLLIYAASNQGSGVPARFSGSGSGTDFSLTISSLEPEDFAVYFCQQSKEVPRTFGQGTKVEIKRTVAAPSVFIFPPSDEQLKSGTASVVCLLNNFYPREAKVQWKVDNALQSGNSQESVTEQDSKDSTYSLSSTLTLSKADYEKHKVYACEVTHQGLSSPVTKSFNRGEC
notes: also called Fd6-IgG1 form antibody; reduced Fc function IgG1 subtype humanized antibody
binding result [17]: binds
binding result [10]: no binding
binding result [11]: no binding
